One test concerns the target HLA-B*40:01. Kind of test: IEDB peptide-MHC binding, purified MHC/competitive/radioactivity; filed as Kd, often an IC50 or EC50 that approximates it; ≥ and ≤ were set here for values at or beyond the usual limits of such assays.
Another test concerns the target HLA-B*44:02. The description is as above.
In another test the target is HLA-B*44:03. The description is as above.
The target in test [1] is HLA-A*01:01. Described as above.
Another test deals with HLA-A*23:01. The description is as above.
Another test addresses HLA-A*24:02. The description is as above.
In another test the target is HLA-A*26:01. The test is described as above.
A further test deals with HLA-A*29:02. The test is described as above.
The next test addresses HLA-A*30:02. Described as above.
Another test addresses HLA-B*53:01. Described as above.
For a further test, the target named is HLA-A*30:01. The description is as above. The note with it: source organism: Dengue virus 3 Martinique/1243/1999.
Test [2] deals with HLA-A*01:01. The test is described as follows: IEDB peptide-MHC binding, purified MHC/direct/fluorescence; filed as Kd, often an IC50 or EC50 that approximates it; ≥ and ≤ were set here for values at or beyond the usual limits of such assays. The note with it: source organism: SARS-CoV1.
Another test addresses HLA-A*03:01. Described as above. Particulars: source organism: SARS-CoV1.
The target in another test is HLA-A*11:01. The description is as above. The note with it: source organism: SARS-CoV1.
Another test has as its target HLA-B*58:01. The test is described as above. Particulars: source organism: SARS-CoV1.
The mark [3] stands for this setting: source organism: Dengue virus 3 Martinique/1243/1999.
[4] abbreviates: source organism: SARS coronavirus Tor2.
The mark [5] stands for this setting: source organism: Dengue virus 1 Brazil/97-11/1997.
Where [6] appears, read: source organism: Dengue virus 2 Jamaica/1409/1983.
[7] abbreviates: source organism: Dengue virus 4 Philippines/H241/1956.
Setting [8] is: source organism: Lassa virus Josiah.
The mark [9] stands for this setting: source organism: Mammarenavirus whitewaterense.
[10] abbreviates: source organism: Triticum aestivum.
[11] abbreviates: source organism: Mammarenavirus guanaritoense.

GESNIVIGI: the values for the Kd with HLA-B*40:01 (setting [3]), with HLA-B*44:02 (setting [3]) and with HLA-B*44:03 (setting [3]) were 0.00236 µM, 0.0108 µM and 0.00595 µM, respectively.
Turning to AWEILKFLI, the Kd in the test with HLA-A*01:01 [1] (setting [4]) is ≥ 78.1 µM; with HLA-A*23:01 (setting [4]), 3.63 µM; with HLA-A*24:02 (setting [4]), 2.96 µM; with HLA-A*26:01 (setting [4]), ≥ 57 µM; with HLA-A*29:02 (setting [4]), 4.1 µM; with HLA-A*30:02 (setting [4]), ≥ 25.3 µM.
On to EERDDTLTIL, for which the equilibrium dissociation constant (Kd) with HLA-B*40:01 (setting [5]) stood at 0.022 µM.
For LTDGEERVIL, the Kd with HLA-A*01:01 [1] (setting [6]) is ≥ 23.6 µM.
Take PYLGKREDLW: the values for the Kd in the test with HLA-A*23:01 (setting [7]) and with HLA-A*24:02 (setting [7]) were 0.505 µM and 1.62 µM, respectively.
Take LIGLTSRATW: the equilibrium dissociation constant (Kd) with HLA-B*53:01 (setting [6]) amounted to 0.459 µM.
As for VFRTSTPRVV, the Kd with HLA-A*01:01 [1] (setting [8]) is ≥ 70.4 µM; with HLA-A*23:01 (setting [8]) it was ≥ 70 µM; with HLA-A*24:02 (setting [8]), ≥ 70.3 µM; in the test with HLA-A*26:01 (setting [8]) it was ≥ 69.7 µM; with HLA-A*29:02 (setting [8]) it was ≥ 71.4 µM; with HLA-A*30:02 (setting [8]), 6.35 µM.
As to VEIWTKEGEK, in the test with HLA-B*40:01 (setting [3]), the Kd worked out at 0.754 µM.
In the case of NEMGLIEKT, in the test with HLA-B*44:03 (setting [7]), the Kd turned out to be 2 µM.
VEPWLKNNQF: the dissociation constant (Kd) in the test with HLA-B*40:01 (setting [3]) came to 1.62 µM; in the test with HLA-B*44:02 (setting [3]), 0.0937 µM; with HLA-B*44:03 (setting [3]), 0.162 µM.
With HETGRLEPSW, the dissociation constant (Kd) is ≥ 70.2 µM in the test with HLA-B*44:02 (setting [7]) and 0.188 µM in the test with HLA-B*44:03 (setting [7]).
Turning to EEFLDYMPSM, the Kd with HLA-A*30:01 worked out at 2.29 µM; in the test with HLA-B*40:01 (setting [3]), 0.142 µM; in the test with HLA-B*44:03 (setting [3]), 0.0708 µM.
For the sequence GTDSGFAAY, the Kd with HLA-A*01:01 [2] is 0.013 µM; in the test with HLA-A*03:01, 0.714 µM; with HLA-A*11:01 it was 0.103 µM; with HLA-B*58:01, 11.6 µM; with HLA-A*23:01 (setting [4]), ≥ 77.8 µM; in the test with HLA-A*24:02 (setting [4]), ≥ 77.6 µM. Further, the Kd with HLA-A*26:01 (setting [4]) amounted to 2.35 µM; with HLA-A*29:02 (setting [4]) it was 0.0529 µM; with HLA-A*30:02 (setting [4]) it was 0.0157 µM.
As for TEKDSPVNI, the dissociation constant (Kd) with HLA-B*44:02 (setting [6]) amounted to 0.587 µM.
For the sequence LWYAQIQPHW, the Kd in the test with HLA-A*23:01 (setting [6]) amounted to 0.203 µM; with HLA-A*24:02 (setting [6]), 0.0131 µM.
As to QENPYRTWAY, the Kd stood at 1.6 µM with HLA-B*40:01 (setting [7]), 0.00766 µM in the test with HLA-B*44:02 (setting [7]) and 0.00886 µM with HLA-B*44:03 (setting [7]).
Take IYVILTILTI: the results for the dissociation constant (Kd) in the test with HLA-A*23:01 (setting [7]) and in the test with HLA-A*24:02 (setting [7]) were 0.0118 µM and 0.0486 µM, respectively.
With AECPNTNRAW, the dissociation constant (Kd) stood at 0.0356 µM with HLA-B*44:02 (setting [6]) and 0.053 µM with HLA-B*44:03 (setting [6]).
Consider PATLFVWYF, for which the Kd in the test with HLA-B*53:01 (setting [5]) was determined as 1.89 µM.
IYQPESQKF: the dissociation constant Kd with HLA-A*23:01 (setting [9]) worked out at 0.0534 µM; with HLA-A*24:02 (setting [9]), 0.0335 µM; with HLA-A*29:02 (setting [9]) it was 0.412 µM.
Take LYKLMGHFSW: the dissociation constant Kd was 18.4 µM in the test with HLA-A*01:01 [1] (setting [4]); 0.0896 µM with HLA-A*23:01 (setting [4]); 0.0831 µM in the test with HLA-A*24:02 (setting [4]); ≥ 20 µM in the test with HLA-A*26:01 (setting [4]); 8.09 µM with HLA-A*29:02 (setting [4]); 17.1 µM in the test with HLA-A*30:02 (setting [4]).
On to QYPLGQGSF, for which the Kd with HLA-A*01:01 [1] (setting [10]) is ≥ 71 µM; with HLA-A*23:01 (setting [10]), 8.09 µM; in the test with HLA-A*24:02 (setting [10]) it was 1.45 µM; in the test with HLA-A*26:01 (setting [10]), ≥ 77.9 µM; with HLA-A*29:02 (setting [10]) it was ≥ 22.9 µM; with HLA-A*30:02 (setting [10]), 1.46 µM.
Take GEKALKLSW: the dissociation constant Kd came out at 0.0397 µM with HLA-B*44:02 (setting [5]) and 0.0402 µM with HLA-B*44:03 (setting [5]).
On to RYNLDPDTI, for which the results for the Kd in the test with HLA-A*23:01 (setting [11]), with HLA-A*24:02 (setting [11]) and with HLA-A*29:02 (setting [11]) were 6.79 µM, 2.97 µM and ≥ 40.6 µM, respectively.
For the sequence QEKGKSLLF, the figures for the Kd with HLA-B*44:02 (setting [6]) and with HLA-B*44:03 (setting [6]) were 0.0527 µM and 1.14 µM, respectively.
On to LTALRLCAY, for which the Kd with HLA-A*01:01 [1] (setting [4]) was 0.00786 µM; in the test with HLA-A*23:01 (setting [4]), 7.11 µM; in the test with HLA-A*24:02 (setting [4]), ≥ 35.3 µM; with HLA-A*26:01 (setting [4]) it was 0.961 µM; in the test with HLA-A*29:02 (setting [4]) it was 0.136 µM; with HLA-A*30:02 (setting [4]) it was 0.0545 µM.

Usually Kd stands for the equilibrium constant for the complex coming apart.

The record behind these values is the Immune Epitope Database (IEDB).
